Data reported in patent publication US12578329B2, “Reagent kit containing polypeptide for use in detection of intermolecular interactions” (SHIMADZU CORPORATION, priority 2021, dated 2026).

B1: picALuc16: SEQ ID NO: 52; ALuc16 with deletion of N terminus and C terminus, corresponding to picALuc30 (protein)
chain: KLPGKKLPLEVLKELEANAQKAGCTRGCLICLSHIKCTAKMKKWLPGRCESWEGDKETGQGGIGEAIVDIPEIPGFKDLEPMEQFIAQVDLCVDCTTGCLKGLANVKCSDLLKKWLPSRCAT
modifications: picALuc16
notes: ALuc16 with deletion of N terminus and C terminus, corresponding to picALuc30
B2: picALuc48: SEQ ID NO: 53; ALuc48 with deletion of N terminus and C terminus, corresponding to picALuc30 (protein)
chain: HGGLPGKKMPLEVLLELEANAQRAGCTRGCLICLSKIKCTAKMKKWLPGRCESWAGDKETGQGGITEEETVDIPEIPGFKDLEPMEQFIAQVDLCVDCTTGCLKGLANVKCSDLLKKWLPSRCAT
modifications: picALuc48
notes: ALuc48 with deletion of N terminus and C terminus, corresponding to picALuc30
B3: ALuc30Δloop2N1: SEQ ID NO: 54; ALuc30 wt with N terminus (1 to 49) and loop 2 (122 to 128) deleted, Gly-Ser inserted; 14 kDa (protein)
chain: RGRRGKLPGKKLPLEVLKELEANAQKAGCTRGCLICLSHIKCTAKMKKWLPGRCESWEGDKETGQGGIGEAIVGSFKELAPMEQFIAQVDLCADCTTGCLKGLANVKCSALLKKWLPSRCAGFADKIQAQVDTIKGAGGS
modifications: ALuc30_del_loop2N1
notes: ALuc30 wt with N terminus (1 to 49) and loop 2 (122 to 128) deleted, Gly-Ser inserted; 14 kDa
B4: position 4 to 58 and position 23 to 120: combination of polypeptides of these positions of SEQ ID NO: 51 (SEQ ID NOs: 78 and 81) (protein)
chain 1: GKKLPLEVLKELEANAQKAGCTRGCLICLSHIKCTAKMKKWLPGRCESWEGDKET
chain 2: GCTRGCLICLSHIKCTAKMKKWLPGRCESWEGDKETGQGGIGEAIVDIPEIPGFKELAPMEQFIAQVDLCADCTTGCLKGLANVKCSALLKKWLPSRC
modifications: part of picALuc30
B5: position 4 to 64 and position 65 to 120: combination of polypeptides of these positions of SEQ ID NO: 51 (SEQ ID NOs: 79 and 83) (protein)
chain 1: GKKLPLEVLKELEANAQKAGCTRGCLICLSHIKCTAKMKKWLPGRCESWEGDKETGQGGIG
chain 2: EAIVDIPEIPGFKELAPMEQFIAQVDLCADCTTGCLKGLANVKCSALLKKWLPSRC
modifications: part of picALuc30
B6: position 4 to 64 and position 73 to 120: combination of polypeptides of these positions of SEQ ID NO: 51 (SEQ ID NOs: 79 and 84) (protein)
chain 1: B5 chain 1
chain 2: IPGFKELAPMEQFIAQVDLCADCTTGCLKGLANVKCSALLKKWLPSRC
modifications: part of picALuc30
B7: position 4 to 72 and position 73 to 120: combination of polypeptides of these positions of SEQ ID NO: 51 (SEQ ID NOs: 80 and 84) (protein)
chain 1: GKKLPLEVLKELEANAQKAGCTRGCLICLSHIKCTAKMKKWLPGRCESWEGDKETGQGGIGEAIVDIPE
chain 2: B6 chain 2
modifications: part of picALuc30

How the values were obtained:
[1] = Emission value of secretion-expressed luciferase in COS-7 culture medium, coelenterazine substrate; type: biochemical
Description: • (1) COS-7 cells derived from the kidney of African green monkey were inoculated in a 24-well dish, and on the next day, subconfluency was attained. • (2) 25 μL of Opti-MEM (Thermo Fisher Scientific™), 400 ng (2 μL) of the plasmid, and 1 μL of P3000 (Invitrogen™, Waltham, MA) were mixed. • (3) 25 μL of Opti-MEM and 1 μL of lipofectoamine 3000 (Invitrogen™) were mixed. • (4) (2) and (3) were mixed together, followed by incubation at room temperature for 5 minutes. • (5) The mixture was added to the medium of (1). • (6) 500 μL of Dulbecco's modified Eagle's medium was added, followed by culturing the cells at 37° C. for 1 day and then collecting the medium. The medium contained secretion-expressed luciferase. • (7) To 100 μL of the medium, coelenterazine was added as a substrate at a final concentration of 5 μM, followed by measuring the emission value by using Enspire multi-mode plate reader (PerkinElmer™, Waltham, MA).
By the same manner as in Experiment 2, the emission value was measured.
The emission value was measured in the same manner as in Experiment 2 except that the final concentration of coelenterazine was changed to 0.5 μM. […] The emission value was measured in the same manner as in Experiment 2 except that the final concentration of coelenterazine was changed to 5 μM.

[2] = Emission activity of divided enzyme (Escherichia coli lysates, single or mixed); type: biochemical; conditions: Experiment 11-2, coelenterazine 5 μM, Enspire multi-mode plate reader
Source text: picALuc30 was divided to prepare plasmids (pET32 vectors) for expression of polypeptides from position 4 to 22, from position 23 to 120, from position 4 to 47, from position 48 to 120, from position 4 to 77, from position 80 to 120, from position 4 to 90, and from position 91 to 120 of the amino acid sequence in SEQ ID NO: 51. In the same manner as in Experiment 10, the plasmid was introduced into Escherichia coli SHuffle T7 Express lysY, and from the cultured bacterial cells, a lysate was obtained. To 100 μL of a single lysate or a mixture of lysates as specified in FIG. 25, coelenterazine was added as a substrate at a final concentration of 5 μM, followed by measuring the emission value by using an Infinite (registered trademark) 200 PRO plate reader (TECAN). Because the lysate contained luciferase fragments at high concentrations, it was expected that when fragment-containing lysates were mixed, two types of fragments were highly likely to encounter each other and these two fragments could form the original luciferase structure.
picALuc30 was divided to further prepare plasmids (pET32 vectors) for expression of polypeptides from position 4 to 58, from position 4 to 64, from position 4 to 72, from position 65 to 120, from position 73 to 120, and from position 104 to 120 of the amino acid sequence in SEQ ID NO: 51. In Experiment 11-2, emission values were measured in the same manner as in Experiment 11-1 except that an Enspire multi-mode plate reader (PerkinElmer™) was used for emission value detection.

[3] = Experiment 2, coelenterazine 5 μM, medium of transfected COS-7 cells

| Molecule | emission value [2] | further results |
| --- | --- | --- |
| B1 | – | emission value [1, 3]: sufficiently high |
| B2 | – | emission value [1, 3]: sufficiently high |
| B3 | – | emission value ([1]; Experiment 4, same manner as Experiment 2 (coelenterazine 5 μM)): about half the emission value of ALuc30ΔN1 |
| B4 | high emission value | – |
| B5 | high emission value | – |
| B6 | high emission value | – |
| B7 | high emission value | – |
